Measured values from publication PMC8686763, “Pre-Steady-State Kinetics of the SARS-CoV-2 Main Protease as a Powerful Tool for Antiviral Drug Discovery” (Frontiers in Pharmacology, 2021).

Molecular target: FRET substrate Dabcyl-[…]-E(Edans)-NH2 (SARS-CoV-2)
Experiment: stopped-flow fluorescence kinetics (FRET signal of the Edans/Dabcyl peptide)

Substance: SARS-CoV-2 main protease, catalytically inactive mutant C145A (enzyme)
- Ka: 1.6e+06 M⁻¹
- Kd: 600 nM
- koff: 0.18 s⁻¹
- kon: 280000 M⁻¹ s⁻¹
